Experimental data as given in patent publication WO1994029351A2.

How the values were obtained:
[1] = biological target: Purified human C1q (Sigma UK) (human) (UniProt P02745); test: cell-based or functional assay
[2] = biological target: FcγRIII on human peripheral blood mononuclear effector cells (human) (UniProt P08637); test: cell-based or functional assay
[3] = biological target: guinea pig complement (serum); test: cell-based or functional assay
[4] = biological target: FcγRI on IFNγ stimulated U937 cells (UniProt P12314); test: 50% inhibition of binding of FITC-labelled mouse lgG2a antibody to U937 cells, FACS
Sequence of FcγRI on IFNγ stimulated U937 cells (P12314 16-374 limits assumed): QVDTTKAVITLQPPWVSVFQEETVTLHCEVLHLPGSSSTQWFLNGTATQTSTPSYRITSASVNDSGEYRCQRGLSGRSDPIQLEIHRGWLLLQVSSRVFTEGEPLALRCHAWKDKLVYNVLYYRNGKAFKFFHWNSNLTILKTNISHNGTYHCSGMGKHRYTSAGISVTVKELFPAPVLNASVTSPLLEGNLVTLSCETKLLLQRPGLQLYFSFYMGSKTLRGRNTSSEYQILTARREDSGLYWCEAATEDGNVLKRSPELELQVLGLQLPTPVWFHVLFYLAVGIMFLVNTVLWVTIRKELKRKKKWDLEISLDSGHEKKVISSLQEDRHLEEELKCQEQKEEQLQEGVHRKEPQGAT

Sequence of Purified human C1q (Sigma UK) (human) (P02745 23-245 limits assumed, chain 1 of 3): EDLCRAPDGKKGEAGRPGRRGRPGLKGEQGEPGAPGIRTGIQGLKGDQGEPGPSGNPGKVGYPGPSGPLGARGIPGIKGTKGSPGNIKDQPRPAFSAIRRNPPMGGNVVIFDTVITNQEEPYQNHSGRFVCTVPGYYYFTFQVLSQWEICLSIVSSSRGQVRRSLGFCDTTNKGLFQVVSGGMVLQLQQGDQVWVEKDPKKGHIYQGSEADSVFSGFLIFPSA
Sequence of Purified human C1q (Sigma UK) (human) (P02746 28-253 limits assumed, chain 2 of 3, further chain): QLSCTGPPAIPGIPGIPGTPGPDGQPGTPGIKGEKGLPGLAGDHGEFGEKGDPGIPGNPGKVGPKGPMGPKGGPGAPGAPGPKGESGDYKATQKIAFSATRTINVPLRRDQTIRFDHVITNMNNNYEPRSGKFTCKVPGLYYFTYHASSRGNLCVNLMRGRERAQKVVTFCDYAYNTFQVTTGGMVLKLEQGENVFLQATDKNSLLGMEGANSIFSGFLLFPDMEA
Sequence of Purified human C1q (Sigma UK) (human) (P02747 29-245 limits assumed, chain 3 of 3, further chain): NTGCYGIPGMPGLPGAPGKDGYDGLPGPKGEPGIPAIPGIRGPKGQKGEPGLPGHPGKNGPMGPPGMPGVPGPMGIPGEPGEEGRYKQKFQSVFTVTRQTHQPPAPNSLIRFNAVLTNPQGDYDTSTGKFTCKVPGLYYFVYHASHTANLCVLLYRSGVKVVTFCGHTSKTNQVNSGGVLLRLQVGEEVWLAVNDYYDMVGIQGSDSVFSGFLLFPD
Sequence of FcγRIII on human peripheral blood mononuclear effector cells (human) (P08637 17-254): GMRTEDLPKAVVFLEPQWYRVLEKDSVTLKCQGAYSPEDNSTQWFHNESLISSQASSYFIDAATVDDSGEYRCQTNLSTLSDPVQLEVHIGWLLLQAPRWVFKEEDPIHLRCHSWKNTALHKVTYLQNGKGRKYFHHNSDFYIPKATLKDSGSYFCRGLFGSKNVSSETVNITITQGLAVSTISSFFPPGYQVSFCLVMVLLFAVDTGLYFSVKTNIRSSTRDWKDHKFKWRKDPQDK

Substance	mg/ml antibody necessary for half maximal cell killing by human complement [1] [mg/mL]	percent plateau cell killing by human complement [1] [%]	ng/ml antibody necessary for half maximal cell killing in ADCC [2] [ng/mL]	plateau level killing with guinea pig complement [3] [%]	IC50 [4] [mg/L]	maximum cell killing by human complement [1] [%]	maximum killing in ADCC [2] [%]	ng/ml antibody necessary for half maximal cell killing in ADCC (extrapolated value) [2] [ng/mL]
chimeric L243 G1[G237A] (from UniProt P01857 1-330; P01834 1-107) (antibody)	2	20	–	–	–	–	–	–
chimeric L243 G1[K320A] (from UniProt P01857 1-330; P01834 1-107) (antibody)	0.6	70	10	–	–	–	–	–
chimeric L243 G1[L235A] (from UniProt P01857 1-330; P01834 1-107) (antibody)	> 20	0	9	49	–	–	–	–
chimeric L243 G1[L235E] (from UniProt P01857 1-330; P01834 1-107) (antibody)	> 20	0	–	40	–	–	–	–
chimeric L243 G4[L235E] (from UniProt P01861 1-327; P01834 1-107) (antibody)	> 20	0	> 100000	–	–	–	–	–
chimeric L243 human lgG1 wild type (from UniProt P01857 1-330; P01834 1-107) (antibody)	0.6	65	–	80	130	64	–	–
chimeric L243 human lgG2 (from UniProt P01859 1-326; P01834 1-107) (antibody)	> 20	0	> 100000	–	–	–	–	–
chimeric L243 human lgG4 (from UniProt P01861 1-327; P01834 1-107) (antibody)	> 20	0	–	–	1200	–	20	10000
